Target: TNF-related apoptosis-inducing ligand receptor 2 (TRAILR-2) (human, UniProt O14763 56-440)
Assay: cell-based or functional assay

Binder	EC50, cell viability assay on Colo205 cells (concentration required to kill 50% of the cells) [nM]
(Tn3)4 (designed binder) GAIEVKDVTDTTALITWAKPWVDPPPLWGCELTYGIKDVPGDRTTIDLQQKHTAYSIGNLKPDTEYEVSLICFDPYGMRSKPAKETFTTGGGGSGGGGSGGGGSGAIEVKDVTDTTALITWAKPWVDPPPLWGCELTYGIKDVPGDRTTIDLQQKHTAYSIGNLKPDTEYEVSLICFDPYGMRSKPAKETFTTGGGGSGGGGSGGGGSGAIEVKDVTDTTALITWAKPWVDPPPLWGCELTYGIKDVPGDRTTIDLQQKHTAYSIGNLKPDTEYEVSLICFDPYGMRSKPAKETFTTGGGGSGGGGSGGGGSGAIEVKDVTDTTALITWAKPWVDPPPLWGCELTYGIKDVPGDRTTIDLQQKHTAYSIGNLKPDTEYEVSLICFDPYGMRSKPAKETFTTGGGGSGGGGSGGGGS	0.04
(Tn3)6 (designed binder) GAIEVKDVTDTTALITWAKPWVDPPPLWGCELTYGIKDVPGDRTTIDLQQKHTAYSIGNLKPDTEYEVSLICFDPYGMRSKPAKETFTTGGGGSGGGGSGGGGSGAIEVKDVTDTTALITWAKPWVDPPPLWGCELTYGIKDVPGDRTTIDLQQKHTAYSIGNLKPDTEYEVSLICFDPYGMRSKPAKETFTTGGGGSGGGGSGGGGSGAIEVKDVTDTTALITWAKPWVDPPPLWGCELTYGIKDVPGDRTTIDLQQKHTAYSIGNLKPDTEYEVSLICFDPYGMRSKPAKETFTTGGGGSGGGGSGGGGSGAIEVKDVTDTTALITWAKPWVDPPPLWGCELTYGIKDVPGDRTTIDLQQKHTAYSIGNLKPDTEYEVSLICFDPYGMRSKPAKETFTTGGGGSGGGGSGGGGSGAIEVKDVTDTTALITWAKPWVDPPPLWGCELTYGIKDVPGDRTTIDLQQKHTAYSIGNLKPDTEYEVSLICFDPYGMRSKPAKETFTTGGGGSGGGGSGGGGSGAIEVKDVTDTTALITWAKPWVDPPPLWGCELTYGIKDVPGDRTTIDLQQKHTAYSIGNLKPDTEYEVSLICFDPYGMRSKPAKETFTTGGGGSGGGGSGGGGS	0.0016
ELPa-(Tn3)4 (designed binder) VGVPGVGVPGVGVPGVGVPGVGVPGVGVPGVGVPGVGVPGVGVPGVGVPGVGVPGVGVPGVGVPGVGVPGVGVPGVGVPGVGVPGVGVPGVGVPGVGVPGVGVPGVGVPGVGVPGVGVPGVGVPGVGVPGVGVPGVGVPGVGVPGVGVPGVGVPGVGVPGVGVPGVGVPGVGVPGVGVPGVGVPGVGVPGVGVPGVGVPGVGVPGVGVPGVGVPGVGVPGVGVPGVGVPGVGVPGVGVPGVGVPGVGVPGVGVPGVGVPGVGVPGVGVPGVGVPGVGVPGVGVPGVGVPGVGVPGVGVPGVGVPGVGVPGVGVPGVGVPGVGVPGVGVPGVGVPGVGVPGVGVPGVGVPGVGVPGVGVPGVGVPGVGVPGVGVPGVGVPGVGVPGVGVPGVGVPGVGVPGVGVPGVGVPGVGVPGVGVPGVGVPGVGVPGVGVPGVGVPGVGVPGVGVPGVGVPGVGVPGVGVPGVGVPGVGVPGVGVPGVGVPGVGVPGVGVPGVGVPGVGVPGVGVPGVGVPGVGVPGVGVPGVGVPGVGVPGVGVPGVGVPGVGVPGVGVPGVGVPGVGVPGVGVPGVGVPGVGVPGVGVPGVGVPGVGVPGVGVPGGAIEVKDVTDTTALITWAKPWVDPPPLWGCELTYGIKDVPGDRTTIDLQQKHTAYSIGNLKPDTEYEVSLICFDPYGMRSKPAKETFTTGGGGSGGGGSGGGGSGAIEVKDVTDTTALITWAKPWVDPPPLWGCELTYGIKDVPGDRTTIDLQQKHTAYSIGNLKPDTEYEVSLICFDPYGMRSKPAKETFTTGGGGSGGGGSGGGGSGAIEVKDVTDTTALITWAKPWVDPPPLWGCELTYGIKDVPGDRTTIDLQQKHTAYSIGNLKPDTEYEVSLICFDPYGMRSKPAKETFTTGGGGSGGGGSGGGGSGAIEVKDVTDTTALITWAKPWVDPPPLWGCELTYGIKDVPGDRTTIDLQQKHTAYSIGNLKPDTEYEVSLICFDPYGMRSKPAKETFTTGGGGSGGGGSGGGGS	0.08
ELPa-(Tn3)6 (designed binder) VGVPGVGVPGVGVPGVGVPGVGVPGVGVPGVGVPGVGVPGVGVPGVGVPGVGVPGVGVPGVGVPGVGVPGVGVPGVGVPGVGVPGVGVPGVGVPGVGVPGVGVPGVGVPGVGVPGVGVPGVGVPGVGVPGVGVPGVGVPGVGVPGVGVPGVGVPGVGVPGVGVPGVGVPGVGVPGVGVPGVGVPGVGVPGVGVPGVGVPGVGVPGVGVPGVGVPGVGVPGVGVPGVGVPGVGVPGVGVPGVGVPGVGVPGVGVPGVGVPGVGVPGVGVPGVGVPGVGVPGVGVPGVGVPGVGVPGVGVPGVGVPGVGVPGVGVPGVGVPGVGVPGVGVPGVGVPGVGVPGVGVPGVGVPGVGVPGVGVPGVGVPGVGVPGVGVPGVGVPGVGVPGVGVPGVGVPGVGVPGVGVPGVGVPGVGVPGVGVPGVGVPGVGVPGVGVPGVGVPGVGVPGVGVPGVGVPGVGVPGVGVPGVGVPGVGVPGVGVPGVGVPGVGVPGVGVPGVGVPGVGVPGVGVPGVGVPGVGVPGVGVPGVGVPGVGVPGVGVPGVGVPGVGVPGVGVPGVGVPGVGVPGVGVPGVGVPGVGVPGVGVPGVGVPGVGVPGVGVPGAIEVKDVTDTTALITWAKPWVDPPPLWGCELTYGIKDVPGDRTTIDLQQKHTAYSIGNLKPDTEYEVSLICFDPYGMRSKPAKETFTTGGGGSGGGGSGGGGSGAIEVKDVTDTTALITWAKPWVDPPPLWGCELTYGIKDVPGDRTTIDLQQKHTAYSIGNLKPDTEYEVSLICFDPYGMRSKPAKETFTTGGGGSGGGGSGGGGSGAIEVKDVTDTTALITWAKPWVDPPPLWGCELTYGIKDVPGDRTTIDLQQKHTAYSIGNLKPDTEYEVSLICFDPYGMRSKPAKETFTTGGGGSGGGGSGGGGSGAIEVKDVTDTTALITWAKPWVDPPPLWGCELTYGIKDVPGDRTTIDLQQKHTAYSIGNLKPDTEYEVSLICFDPYGMRSKPAKETFTTGGGGSGGGGSGGGGSGAIEVKDVTDTTALITWAKPWVDPPPLWGCELTYGIKDVPGDRTTIDLQQKHTAYSIGNLKPDTEYEVSLICFDPYGMRSKPAKETFTTGGGGSGGGGSGGGGSGAIEVKDVTDTTALITWAKPWVDPPPLWGCELTYGIKDVPGDRTTIDLQQKHTAYSIGNLKPDTEYEVSLICFDPYGMRSKPAKETFTTGGGGSGGGGSGGGGS	0.00078

Source: US20190345228A1 (DUKE UNIVERSITY, published 2019)
